Assay results taken from PMC9610207 (Viruses, 2022).
No end group written: not given here.

T1: MPP5 PDZ (amino acids 238–336) (human, UniProt Q8N3R9 238-336)
T1 sequence (looked up): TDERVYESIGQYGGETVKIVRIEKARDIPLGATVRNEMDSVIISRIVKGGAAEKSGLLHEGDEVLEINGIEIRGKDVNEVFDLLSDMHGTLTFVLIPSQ


Tests used:
[1] = target: SNX27 PDZ (amino acids 740–141) (human, UniProt Q96L92 43-136); assay: fluorescence polarisation; details: both partners purified
[2] = target: T1, MPP5 PDZ (amino acids 238–336); assay: fluorescence polarisation; details: both partners purified

Binder | Kd [1] [µM] | Kd [2] [µM]
EPTTTTSVPL (also: FITC-labeled) [FITC-labeled peptide of the C-terminus of SARS-CoV-2 ORF3a (ORF3A 266-275)] | > 400 | –
NSSRVPDLLV (also: FITC-labeled, also called peptide from the E protein) [FITC-labeled peptide of the C-terminus of the SARS-CoV-2 E protein (E66-77)] | > 400 | 400 ± 55
